The values that follow come from patent US20250382354A1.

The term EC50 denotes the concentration giving half of the maximal effect. Lower therefore signals an effect from little substance.

The assay deals with JL14 HR2 peptide (JL14). Description: peptide ELISA. For orientation: ELISA stands for enzyme-linked immunosorbent assay.

B1: CV3-25 (antibody)
chain 1: QVQLVESGAEVKKPGESLKISCKGSGYTFTRYWIGWVRQMPGKGLEWMGIIYPGDSDTRYSPSFQGHVTISADKSISTAYLQWNSLKASDTAMYYCARLPQYCSNGVCQRWFDPWGQGTLVTVSS
chain 2: EIVLTQSPSSVSASVGDRVTITCRASQGISSWLAWYQQKPGKAPKLLIYAASSLQSGVPSRFSGSGSGTDFTLTISSLQPEDFATYYCQQGNSFPYTFGQGTNLEIK
For the molecule B1, the EC50 amounted to 0.0176 µg/mL.

B2: hr2.020 (antibody, V domains shown)
VH: EVQLVQSGAEVKKPGESLKISCKGSGYRFASHWIGWVRQMPGKGLQWMGIIYPGDSDTKYSPSFQGQVTISADKSINTVYLHWTSLKASDTAVYYCARRPPHLDGGDSPIRFDHWGQGTLVTVSS
VL: QSVLTQPPSASGTPGQRVTISCSGSRSNIGSNDVYWYQQFPGTAPKLLIYRNNQRPSGVPDRFSGSKSGTSASLAISGLRSEDEADYYCATWDDRLTGVFGGGTKLTVV
With B2, the EC50 is 0.0351 µg/mL.
